In paper PMC4260750:

Biological target: ADAM10 (endogenous, rat brain) (UniProt Q10743)
Test: GST pull-down from rat brain homogenate
Conditions: reference: GST-SAP97wt, PKC-treated; sites T629

In the case of “SAP97 (GST-SAP97 and YFP-SAP97 constructs) (from UniProt Q62696) GST-SAP97-T629A, PKC-treated”, the “binding against the reference” value is reported as “weaker”.
